# Source: patent US20220241369A1, “COMPOSITIONS AND METHODS OF MODULATING INFLAMMATION” (La Jolla Institute for Allergy and Immunology, priority 2018, published 2022)
# B1: HRF-2CA-His6, a monomeric mutant of mouse HRF (protein)
# chain: MIIYRDLISHDELFSDIYKIREIADGLALEVEGKMVSRTEGAIDDSLIGGNASAEGPEGEGTESTVVTGVDIVMNHHLQETSFTKEAYKKYIKDYMKSLKGKLEEQKPERVKPFMTGAAEQIKHILANFNNYQFFIGENMNPDGMVALLDYREDGVTPFMIFFKDGLEMEKAHHHHHH
# Test system: OVA-induced food allergy (allergic diarrhea)
# Assay: IgE-mediated experimental food allergy, i.g. pretreatment with HRF inhibitor before each OVA challenge
# Format: in vivo, mouse
# Method: FIGS. 1A-1I show GST-N19 inhibits the development of diarrhea and intestinal mastocytosis in murine food allergy. Mice were i.p. sensitized with OVA ([…]) plus alum on days 0 and 14. From day 28, mice were i.g. challenged with OVA (50 mg) three times a week. Sensitized mice were either non-pretreated (−) or i.g. pretreated with 100 μg of GST or GST-N19 (N19). (FIG. 1A) Procedure scheme. (FIG. 1B) The development of diarrhea was monitored for 90 min after each OVA challenge. (n=5 for non-sensitized group, n=3 for inhibitor non-pretreated group, n=4 for GST group, n=6 for N19 group, data are representative of at least 3 independent experiments) Log-rank test: p=0.028 (GST vs. GST-N19), p=0.036 (control vs. GST-N19). […] (FIG. 1C-FIG. 1E) Total IgE, IgG1, HRF, and HRF-reactive IgE and IgG in sera were measured by ELISA. (FIG. 1F) Serum mMCP-1 was also measured by ELISA. (FIG. 1G) Sections of jejunum were stained with chloroacetate esterase to identify mast cells. Sections indicated by rectangles are enlarged in lower rows. Bar=100 μm in large pictures and 50 μm in insets. (FIG. 1H) Flow cytometry was performed to enumerate MMC9s (Lin^−c-Kit^+ST2^+IL-17RB^−Integrin β7^lo) in jejunum. (n=14 for non-sensitized group, n=15 for inhibitor non-pretreated group, n=9 for GST group, n=9 for GST-N19 group, pooled data of 3 independent experiments) (FIG. 1I) Cytokine mRNAs in jejunum were quantified by qRT-PCR. *, **: p<0.05, p<0.01 by ANOVA with Tukey's multiple comparison.
# Mice were i.p. sensitized with OVA (50 μg/mouse) plus alum on days 0 and 14. From day 28, mice were i.g. challenged with OVA (25 or 50 mg) or PBS (control) three times a week. Before each challenge, mice were starved for 3 h, then i.g. pretreated with GST, GST-N19 (100 μg/mouse), synthetic N19 peptide, or HRF-2CA. The development of diarrhea was monitored for 90 min after OVA challenge. Diarrhea severity (30) was based on states of stool: solid (score 0), funicular (score 1), slurry (score 2), and watery (score 3).
# For histologic analysis, jejunal tissue was fixed in 10% formalin. Mast cells in jejunal sections were detected by chloroacetate esterase staining. IgE, IgG, IgG1, IgG2a, mMCP-1, HRF, HRF-reactive IgE, and HRF-reactive IgG 24 h after the last OVA challenge were measured by ELISA (see Supplemental Information). Cytokine mRNAs in jejunum were quantified by qRT-PCR.
# Twenty-four hours after the last OVA challenge, mice were sacrificed and small intestines (0.5-15 cm from stomach) were collected. The intestinal tissues were opened longitudinally and washed with HBSS. The washed tissues were incubated with 5 mM EDTA-HBSS for 30 min at 4° C., transferred to 30 ml HBSS in 50 ml tubes, and vigorously shaken to remove intestinal epithelial cells. The tissues were then washed with 10 ml of 10% FCS RPMI medium. Tissues were cut into tiny pieces and incubated with 2.4 mg/ml Collagenase D and 0.2 mg/ml DNase for 30 min at 37° C. Then cells were washed, resuspended in 44% Percoll solution, and slowly loaded on the top of 67% Percoll solution. The cells were centrifuged (1800 rpm, 20 min) and lymphocyte fractions were collected and used for detection of MMC9s (Lin^−c-Kit^+ST2^+IL-17RB^−Integrin β7^lo).
# The cells were first incubated with 2.4G2 for 15 min at 4° C. and further incubated with Abs (PE-anti-07 integrin mAb (clone FIB504), PerCP/Cy5.5-anti-CD4 mAb (clone RM4-5), PerCP/Cy5.5-anti-CD8 mAb (clone 53-6.7), PerCP/Cy5.5-anti-CD11b mAb (clone M1/70), PerCP/Cy5.5-anti-CD11c mAb (clone N418), PerCP/Cy5.5-anti-B220 mAb (RA3-6B2), PerCP/Cy5.5-anti-Ly-6G/Ly-6C mAb (clone RB6-8C5), PerCP/Cy5.5-anti-CD335 mAb (clone 29A1.4), AlexaFluor647-anti-IL-17RB (clone 9B10), APC/Cy7-anti-CD117 (clone 2B8), Biotin-anti-ST2 (clone DIH9)) (Biolegend) for 30 min at 4° C. After washed, the cells were incubated with SA-BV421 (Biolegend) for 30 min at 4° C. MMC9 population was identified using FACS Canto. Data were analyzed using FlowJo software.
molecule,measurement,setting,value
B1,HRF-reactive IgE levels,"OVA-sensitized mice after OVA challenges, i.g. pretreatment",did not affect
same,reduction of HRF-reactive IgG levels,after eleven OVA challenges,not affected
same,number of mucosal mast cells in jejunum (intestinal mastocytosis),"i.g. pretreatment before each OVA challenge, chloroacetate esterase staining",inhibits
same,"levels of total IgE, IgG1, IgG2a or HRF-reactive IgE and IgG","i.g. pretreatment, serum ELISA",failed to affect
same,diarrhea occurrence / incidence,sensitized mice pretreated i.g. with 100 μg before each OVA challenge,inhibits
